The series in a line: yeast display, Sf9 membrane polyspecificity reagent, FACS + sequencing; frameworks hold sequencing errors. The method, boiled down: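 Sorting gates, low and high (top ~1%), were placed on anti-HA fluorescence to track expression and on streptavidin fluorescence to track reagent binding. A clone's polyreactivity label is taken from the gate it came out of. The reagent was 10% biotinylated, detergent-solubilized Sf9 membrane, applied for 1 hour at 4 °C to galactose-induced yeast display cells.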
For the sequence “QVQLVESGGGLVQAGGSLRLSCAASGFIFDWNTMGWYRQAPGKERELVAAITESSGSTYYADSVKGRFTISRDNAKNTVYLQMNSLKPEDTAVYDCAADFSYVYYLYDYWGQGTQVTVSS”, the “polyreactivity (PSR sort gate)” value is recorded as “low polyreactivity”.

Regarding “QVQLVESGGGLVQAGGSLRLSCAASGFIFTKNAMGWYRQAPGKDRVLVAAITSSGGNTYYADSVKRRFTIARDNAKNTVYLQMNSLKPEDTAVYYCAASRFLRMYWGQGTQVTVSS”, the “polyreactivity (PSR sort gate)” value is given as “high polyreactivity”. For “QLQLEESGGGLVQAGGSLRLSCAASGRIFNYYAMGWYRPAPGKEKELVAAISTVCGSTYYADSVKGRFTISRDKAKNTVYIQMHSLKPEDTSVYYCAAYQYYDFSYSYDYWGQGTQVTVSS” the value was “low polyreactivity”; for “QVQLVESGGGLVQAGGSLRLSCAASGSIFRGYTMGWYRQAPGKERELVAAISWSGGSTYYADSVKGRFTISRDNAKNTVYLQMNSLKPEDTAVYYCAAGDYYHRIFLWYDYWGQGTQVTVSS”, “low polyreactivity”. Regarding “QVQLQESGGGLVQAGGSLRLGCAASGYISGFNEMGWYRQAPGKGRELDAAITYGGITNYADSVKGRFTISRDNAKNTVYLQMNSLKPEDTAMYYCAAGDFDQSNHAYWGQDTQVTVSS”, the “polyreactivity (PSR sort gate)” value is recorded as “high polyreactivity”. In the case of “QVQLVESGGGLVQAGGSLRLRCAATGFIFSSYAMGWYRQAPGKERELVAAINRSGSTYYADSVKGRFTISRDNAKNTVYLQMNSLKPEDTADYYCNARRYYYRYRNYDYWGQGTQVTVSS”, the “polyreactivity (PSR sort gate)” value is listed as “high polyreactivity”.

As for “QVQLEESGGGLVQAGGSLRISCAASGSIVRYKAMGWYRQAHGKERELVAAISSRGGSTYYADSVKGRFTISRDNAKNTVYLQMNSLKPEDTAVYYCNVRWTYKYDYWGQGTQVTVSS”, the “polyreactivity (PSR sort gate)” value was “high polyreactivity”.

As to “QVQLVESGGGLVQAGGSLRLSCAASGSIFYNYSMGWYRQAPGKERELVATITRSDGSTYYADSVKGRFTISRDNAKNTVYLQMNSLKPEDTAVYYCNADSLWDRAFGYYYWGQGTQVTVSS”, the “polyreactivity (PSR sort gate)” value is on record as “low polyreactivity”. For “QVQLVESGGGLVQAGGSVRLSCAASGLTFQRYAMGGYRQAPGKERELVASITGNGGSTYYADSVKGRFSISRDNAKNTVYLQMNSLKPEDTAVYYCNARRYVRTCQQPLYDYWGQGTQVTVSS” the value was “high polyreactivity”; for “QVQLVESGGGLVQAGGSLRLSCAAPGSTIRANAMGWYRQAPGKEMELVAAITKNGGSTYYADSVKGRFTISRDNAKNTVYLQMNSLKPEDTAVYYCAARRSSRRPPYYYWGQGTQVTVSS”, “high polyreactivity”; for “QVQLVESGGGLVQAGGSLRLSSAASGFIFATYAMGWYRQAPGTERELVAAISQSGGGTYYADSVKGRFTISRDNAKNTVYLQMNSLKPEDTAVYYCAVDVSEWYHYDLYYWYYYWGQGTQVTVSS”, “high polyreactivity”. For “QVQLVESGGGLVQAGGSLRLSCAASGLIFIIYTRGWSRQAPGKERELVAAITRRGGITYYADSVKGRFTISRDNAKNTVYLQMNSLKPEDTAVYYCAVVRPYNIWYDYWGQGTQVTVSS”, the “polyreactivity (PSR sort gate)” value was “low polyreactivity”. Take “QGQLVESGGGLVQAGGSLRLSCAASGFNFRRYAMGWYRHAPGKERELVAVITSGGSTYYADSVKGRFTISRDYAKNTVYLQMNSLKPEDTAVYYCASRYYWYSQEYVLSSWWGDYWGLGTQVTVSS”: the “polyreactivity (PSR sort gate)” value is listed as “high polyreactivity”. On to “QVQLVESGGGLVQAGGSLRLSCAASGSTFYRNSMGWYRQAPGKEREFVAAISFRGGGTYADSVKGRFTISRDNAKNTVYLQMNSLKPEDSAVYYCAADHQSYRRRYEYWGQGTQVTVSS”, for which the “polyreactivity (PSR sort gate)” value is “low polyreactivity”. With “QVQLVESGGGLVQAGGSLRLSCAASGRTFPFYAMGWYRPAPGKERELVAAIHSGGITNYADSVKGRFTISRDNAKNTVYLQMNSLKPEDYAVYDCAALTAFYRERGYWGEGTQVTVSS” the entry was “low polyreactivity”; with “QVQLVESGGGLVQAGGSLRLSCAASGRIFYYNAMGWYRQAPGKERELVAAITRTGGSTYYADSVKGRFTISRDNAKNTVYLQMNSLKPEDTAVYYCAAYGGRDIRFEYWGQGTQVTVSS”, “high polyreactivity”; with “QVQLVESGGGLVQAGGSLRLSCAASGRTFRQYALGWYRQAPGKEWELVATISGGGGNTYYADSVKGRFTISRDNAKKTVYLQMNSLKPEDTAFYYCAARRRDRPVRGYDYWGQGTQVTVSS”, “high polyreactivity”.

As to “QVQLVESGGGLVQAGGSLRLSCAASGRIIYKNAMGWYRQAPGKETELVAAINSSGGSTYYGDSVKGRFTISRDNAKNTVYLQMNCLKPEDSAVYYCAAYDYGRFGKLNYWGQGSQVTVSS”, the “polyreactivity (PSR sort gate)” value is given as “low polyreactivity”. With “QVQLVESAGGLVQAGGSLRLSCAASGFIFRNYAMGWYRQEHGKERELVAAISRRGGSTYYADSVKGRFTISRDNAKNTVYLQMNSLKPEDTAVYYCAADYYYSSRIEYYYWGQGTQVTVSS” the entry was “high polyreactivity”.

As for “QVQLVESGGGLVQAGVSLRLSCAASGSTFRRYAMGWYRQAPGKAWEISTSDGSTYYADSVKGRFTISRDNAKNTVYLQMNSLKPEDTAVYYCAADGYRQLIEDITDDYWGQGTQVTVSS”, the “polyreactivity (PSR sort gate)” value is recorded as “low polyreactivity”. With “QVQLVESGGGLVQEGGSLRLSCSASGRIFGSYAMGWNRPATGKERELVAAINSSGGRTYYADSVKGRFTISRDNAKNTVYLQMNSLKPDVTAVYYCNARRVYSQRYDYWGQGTQVTVSS” the entry was “high polyreactivity”; with “QVQLVESGGGLVQAGGSLRLSCAASGFTFYRNTMGWYRQAPGKERELVATITFSGTRTYYADSVKGRFTISRDNAKNTVYLQMNSLKPEDTAVYYCAADRPRRTKWGGGGYYWGQGTQVTVSS”, “high polyreactivity”. “QVQLVESGGGLVQAGGSLRLSCAASGRIFSVYAMGWYRQAPGKEREFVASISWRGGRTYYADSVKGRFTISRDNAKNTVYLQMNSLKPEDTAVYYCAAVSYPAVYGFDYWGQGTQVTVSS”: the “polyreactivity (PSR sort gate)” value is given as “high polyreactivity”. For the sequence “QVQLVESGGGLVQAGGSLRLSCAASGSTFAKYAMGWYRQAPGKERELVASIRLSGGSTYYADSVKGRFTISRDNAKNTVYLQMNSLNPEDTAVYYCNKQFATFYYGFDYYYWGQGTQVTVSS”, the “polyreactivity (PSR sort gate)” value is “low polyreactivity”.

“QVQLVESGGGLVQAGGSLRLSCAASGSIFRIYAMGWYRQAPGIERELVAAINAGGGRTYYADSVKGRFTISRDNAKNTVYLLMNSLKPEDTAVYYCAARHTEYRQESLYYWGQGTQVTVSS”: the “polyreactivity (PSR sort gate)” value is given as “low polyreactivity”. With “QVQLVESGGGLVQAGGSLRLSCAASGRIFKSYVMGWYRQATGKERELVAAITRTGGSTYYADSVKGRFTISRDNAKNTVYLQMNSLKPVDTAVYYCNARYSWPRATWYDYWGQGTQVTVSS” the entry was “high polyreactivity”; with “QVQLVESGGCLVQAGGSLRLSCAASGRTFSYYAMGWYRQAPGKERELVAAIDWSGSRTYYADSVKGRFTISRDNAKNTVYLQMNSLKPEDTAVYYCIADRTRGYQRYDYWGQGTQVTVSS”, “high polyreactivity”; with “QDQLEESGGGIVQAGGSLRLSCAASGSTFQYYAMGWYRQAPGKERELFAAISASVDTKFYADSVKGRFTISRDNAKNTVYLQMNSLKPEDTAFYYCATDWPHWRKVYWFDYWGQGTQVTVSS”, “low polyreactivity”. With “QVQLVESGGGLVQAGGSLRLSCAASGIIFRYYAMGWYRQAPGKEREFVADISASDGSTYYADSVKGRFTISRDNAKNTVYLQMNSQKPEDTAVSYCNARKYWKYGSYQYYWGQGTEVTVSS” the entry was “high polyreactivity”; with “QVQLVDSGGGLVQAGGSLRLSCAASGFIFSAYTMGWYRQAPGKERELVAAISGSGVGTYYADSVKGRFTISRDNAKNTVYLQMNSLKPEDTAVYYCNAADYTAYYWEYYYWGQGTQVTVSS”, “low polyreactivity”; with “QVQLVESGGGLVQAGGSLRLSCAASGRIFWWYAMGWYRQAPGKERELVAAISTGSRTYYADSVKGRFTISRDNAKNTVYLQMNSLKPEDTAVYYCNKDYWYGYSDFDYWGQGTQVTVSS”, “low polyreactivity”. For “QVQLVETGGGLVQAGGSLRLSCAASGSIFLGNAMGWYRQAPGKERELVAAISGGDSTNYADSVKGRFTISRDNAKNTVYLQMKSLKPEDTAVYYCNALTHWAPASYEYDYWGQCTQVTVSS”, the “polyreactivity (PSR sort gate)” value is listed as “low polyreactivity”.

For the sequence “QVQLVESGGGLVQAGGSLRLSCAASGFIFGNYPMGWYRQAPGKQRELVAAITSGGNTNYADSVKGRFTISRDNAKNTVYLQMNSLKPEDTAVYYCAADRNLYWVFSPNETEDYWGQGTQVTVSS”, the “polyreactivity (PSR sort gate)” value is reported as “low polyreactivity”. With “QVQLVESGGGLVQAGGSLRLSCAASGRTFLSYTMGWYRQAPGKERELVAAITTSGGSTNYADSVKGRFTISRDNAMNNVYLQMNSLKPEDTAVYYCADEWSVYFNDPRSDYWGQGTQVTVSS” the entry was “high polyreactivity”; with “QVQLVESGGGLVQAGGSLRLSCAASGRIFYSNAMGWYRQAPGKERELVAVIRRTGSTYYAASVKGRFTISRDNAKNTVYLQMISQIPEDTAVYYCATSIPYGRGGNRYVYWGQGTQVTVSS”, “high polyreactivity”; with “QVQLVESGGGLVQAGGSLRLSCAASGITFEGYAMGWYRQAPRKERELVAAITGSGSTTYYADSVKGRFTISRDNAKNTVYLQMNSLKPEDTAVYYCAADVSYKLYWGQVTQVTVSS”, “low polyreactivity”.

Turning to “QVQLVEAGGGLVQAGGSLRLSCAASGRIFGRYVMGWYRQAPGKERELVASISTRRGRTYYADSVKGRFTSSRDNAKNTVYLQMNSLKPEDTAVYYCATAYSSHYGIHRRYEYWGQGTQVTVSS”, the “polyreactivity (PSR sort gate)” value is “high polyreactivity”. With “QVKLVESGGGLVQEGGSLRLSCAASGRICGNYSMGWYRQAPGKERELVAAIDLSGDSTYYADSVKGRFTISRDNAKNTVYLQMNSLKPEDTAVYYCAATDWFSEYYWGQGTQVTVSS” the entry was “low polyreactivity”; with “QVQLVESGGGLVQAGGSLRLSCAASGRTFDDYAMGWDRQAPGKERELVAAITQNGRDTYADSVKGRFTISRDNSKKYRLFTDVQPVTGRYRGLLLRCVRYEVNLYDYWGQGTQVTVST”, “low polyreactivity”.

With “QVQLVESGGGLLQAGGSLRLSCAASGRTFNKYAMGWYRKAPGIVRELVAAINYSGGRTYYADSVKGRFTISRDNAKNSVYLEMNSLKPEDTAVFYCAATPTFFVWQGYNYWGQGTQVTVSS”, the “polyreactivity (PSR sort gate)” value is given as “low polyreactivity”.

With “QVQLVESGGGLVQAGGSLRLSCAASGRIFSGNVMGWYRQAPGKERELVAAISRSGGSTYYADSVKGRFTISRDNAKNTVYLQMNSLKPEDTAVYYCADVPTSNSFRSSFYYWGHGTQVTVSS”, the “polyreactivity (PSR sort gate)” value was “high polyreactivity”.

The values above are taken from the nanobody polyreactivity screen of Harvey et al. (2022).
